In article PMC8599806:

Target: RECQL (UniProt P46063)
Test: ID3 co-IP, Western blot
Conditions: reference: wild type ID3; sites S65

## ID3 (from UniProt Q02535) S65A
  binding against the reference: lost
